Assay results from patent US20030113892A1.
No end group written: not given here.

What was measured:
[1] = biological target: rat brain synaptosomes (voltage-gated sodium channel, receptor site 3) (rat); test: cell-based or functional assay
[2] = biological target: rat brain synaptosomes (voltage-gated sodium channel, receptor site 3) (rat)

For uctoxin (peptide), the enhancement of [3H] BTX binding to rat brain synaptosomes [1] was 2 fold and the EC50 [2] was 60 nM.

B1: birtoxin (peptide)
chain: ADVPGNYPLDKDGNTYKCFLLGGNEECLNVCKLHGVQYGYCYASKCWCEYLEDDKDVS
modifications: also: three disulfide bridges, pairings not given here
B1 showed an enhancement of [3H] BTX binding to rat brain synaptosomes [1] of 4.32 fold and an EC50 [2] of 5 nM.
